Substrate: Nc1ncnc2c1ncn2[C@@H]1O[C@H](COP(=O)(O)OP(=O)(O)OP(=O)(O)O)[C@@H](O)[C@H]1O
Assay: ATP/NADH coupled assay (pyruvate kinase / lactate dehydrogenase), A340, Hanes-Woolf plot
Format: biochemical, Nostoc sp. PCC 7120 = FACHB-418
Details: 50 mM Tris-HCl pH 8.0, 20 mM KCl, 5 mM MgCl2, 25 °C, 50 μg GvpN in assay, methods state NADH (40 to 200 μM), not ATP, was varied

B1: GvpN (Nostoc sp. PCC 7120 = FACHB-418) (protein)
chain: MTLTANNKKRAVLRVRPGQFVVTPAIEQVAIRALRYLTSGFAIHLRGPAGTGKTTLAMHLANCLDRPIMLIFGDDEFKSSDLIGSESGYTHKKLLDNYIHSVLKVEDEFKQNWVDSRLTLACREGFTLVYDEFNRSRPEVNNVLLSALEEKILTLPPSSNQPEYLHVNPQFRAIFTSNPEEYCGVHSTQDALMDRLVTINMPEPDELTQTEILAQKTALNRADALLIVRLVKAFRSRTGGEKTSGLRSCLMIAKVCAEHNILVSPQSSDFREICADVLFNRTNWSASEAATIFLELLNHLDLQQIEEFKNSIIPEDTDAIAEGGFPTIIDSHFGTLDSEVLEQPGVEDSIPFEQEIYLYLQQYKSAALALVQQEFELSRTVATNALNSLEQKGLVSKNNHVYTIEEPNQS
notes: recombinant, C-terminal 6xHis tag (modified pET-29a, same manner as GvpF), E. coli BL21(DE3), Ni-NTA and Superdex 200; N-terminal AAA domain
- Km: 3.9 ± 1.5 µM
- kcat: 35 ± 2 s⁻¹

Source: paper PMC7204071, “The model cyanobacteria Anabaena sp. PCC 7120 possess an intact but partially degenerated gene cluster encoding gas vesicles” (BMC Microbiology, 2020)
